Assay results as given in PMC10673843, “Selection, characterization and in vivo evaluation of novel CD44v6-targeting antibodies for targeted molecular radiotherapy” (Scientific Reports, 2023).

Molecular target: T1, CD44 (isoform 4), Fc-fused (Homo sapiens, UniProt P16070-4, strain)
T1 construct: printed MW 94.4 kDa; Fc-fused, dimeric presentation; For selections, ELISA and HTRF it was chemically biotinylated by amine coupling; also called CD44iso4; CD44iso4-Fc fusion construct; source: bought: Promab Biotechnologies, produced in HEK293 cells; not shown: Fc (IgG1), C-terminal, kept
Test: SPR; single cycle kinetics; purified IgG4 captured by an immobilised anti-Fab antibody on a CM5 chip; CD44iso4 (Fc-fused, dimeric) injected in five concentrations between 80 and 0.3 nM; HBS with 0.05% Tween20, pH 7.5; 1:1 model; apparent (possible avidity from the dimeric target)
Conditions: both partners purified

B1: BIWA4 (bivatuzumab), as human IgG4 (antibody, V domains shown)
VH: EVQLVESGGGLVKPGGSLRLSCAASGFTFSSYDMSWVRQAPGKGLEWVSTISSGGSYTYYLDSIKGRFTISRDNAKNSLYLQMNSLRAEDTAVYYCARQGLDYWGRGTLVTVSS
VL: EIVLTQSPATLSLSPGERATLSCSASSSINYIYWYQQKPGQAPRLLIYLTSNLASGVPARFSGSGSGTDFTLTISSLEPEDFAVYYCLQWSSNPLTFGGGTKVEIK
notes: VH of BIWA4; human IgG4 heavy chain constant region from the in-house vector pHAT-hIgG4, with the hinge-stabilising S228P substitution; numbers count on: EU numbering; VL of BIWA4; light chain constant region of the vector pHAT-hIgG4; also called positive control; source: expiHEK293 cells, transfected, purified (Protein A beads)
B1: binds.
